Source: the supplement of paper PMC9732359
± gives the uncertainty stated by the source.

Test: protein stability index of a GFP-peptide fusion (yeast GPS) (PSI 1-4); higher = more stable; sorted into four equal gates, so the index is relative within each strain
Procedure, shortened: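 Plasmids in a pooled yeast library fused tiled 17-residue yeast protein peptides downstream of GFP and also expressed Cherry. Mid-log cultures grown without leucine were sorted into four equal gates by GFP/Cherry fluorescence ratio. Each gate's plasmids were PCR-amplified and Illumina-sequenced, and reads were matched to strains by barcodes. The protein stability index is derived by multiplying each gate's read frequency by its gate number and summing the results.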

Sequence | protein stability index (doa10∆) | protein stability index (pdr5∆) | protein stability index (san1∆) | protein stability index (ubr1∆)
FLKLYVLVKWTRTIKQN [RGR1] | 1.41 ± 0.11 | 1.85 ± 0.14 | 2.38 ± 0.17 | 1.15 ± 0.091
FLQDKVQIKDVNDRYQI [CSI1] | 3.28 ± 0.18 | 1.58 ± 0.12 | 1.05 ± 0.17 | 3.37 ± 0.21
FLSKPSKALYPDYYMII [SNF2] | 2.31 ± 0.037 | 2.4 ± 0.045 | 2.19 ± 0.047 | 2.54 ± 0.035
FLTGQFASNKKINDESS [YML103C/NUP188] | 2.23 ± 0.05 | 2.23 ± 0.055 | 2.44 ± 0.067 | 2.4 ± 0.052
FLWPFKLSNPSGGWGVP [RPL7A] | 3.16 ± 0.077 | 2.85 ± 0.075 | 3.16 ± 0.1 | 3.36 ± 0.14
FNEENGEDSTKPLGPCD [POP1] | 3.34 ± 0.14 | – | – | –
FNELCDPESRTQSYNNQ [POP1] | 3.09 ± 0.14 | 3.02 ± 0.12 | 2.95 ± 0.11 | 2.96 ± 0.084
FNLLILSLNKRIYDREP [YCG1] | 2.75 ± 0.11 | 2.41 ± 0.091 | 2.22 ± 0.13 | 2.33 ± 0.045
FNPQDTEENIKGETNSE [RRP45] | 3.36 ± 0.26 | 3.19 ± 0.14 | 3.22 ± 0.19 | 3.12 ± 0.18
FNQRDGEHEKSNILLNS [MED1] | 2.4 ± 0.087 | 1.96 ± 0.11 | 2.99 ± 0.17 | 3.21 ± 0.11
FNRLKKQAHEKLDASKK [YIL149C/MLP2] | 2.95 ± 0.086 | 3.08 ± 0.099 | 3.41 ± 0.069 | 3.14 ± 0.082
FNYGKLPLPPSVEWMKV [SIN4] | 2.6 ± 0.11 | 2.93 ± 0.093 | 2.93 ± 0.065 | 2.92 ± 0.064
FPIALQWTGGRGGGHHS [FAS1] | 2.52 ± 0.18 | 1.87 ± 0.23 | – | –
FPKIDSLAQNDCNSALD [RPN5] | 2.52 ± 0.062 | 2.64 ± 0.049 | 3.03 ± 0.05 | 2.93 ± 0.045
FPTDLEIFQLFTNPSVD [SWI1] | 2.59 ± 0.069 | 2.88 ± 0.078 | 2.67 ± 0.07 | 2.35 ± 0.056
FPTRLGQGYRKVGIWPY [YJL039C/NUP192] | 3.49 ± 0.17 | 3.25 ± 0.14 | 2.96 ± 0.12 | –
FPWLNAIKYRPTSVKLL [POP3] | 2.1 ± 0.038 | 2.19 ± 0.046 | 2.26 ± 0.062 | 1.96 ± 0.035
FQAHEITSFLLSKMENV [NAS6] | 1.79 ± 0.079 | 1.53 ± 0.045 | 1.66 ± 0.094 | 1.69 ± 0.045
FQFKLLQSNSKLASTLE [SMC4] | 2.29 ± 0.056 | 2.37 ± 0.042 | 2.42 ± 0.055 | 2.58 ± 0.038
FQHADNSSMRYGYWFDC [AAR2] | 3.06 ± 0.11 | 2.77 ± 0.12 | 2.15 ± 0.089 | 3.14 ± 0.14
FQIPTNLDAAAAGTSQA [RPC10] | 2.44 ± 0.14 | 2.83 ± 0.09 | 2.65 ± 0.095 | 2.66 ± 0.085
FRFQGGIIVAVDSRATA [PRE2] | 1.45 ± 0.063 | 1.54 ± 0.072 | 1.3 ± 0.12 | 1.62 ± 0.078

Sequence | protein stability index (doa10∆) | protein stability index (pdr5∆) | protein stability index (san1∆) | protein stability index (ubr1∆)
FRRDFLLREYDILSQIL [YJL039C/NUP192] | 1.81 ± 0.12 | 2.32 ± 0.1 | 2.08 ± 0.11 | 2.27 ± 0.06
FRTVKEMVKDRGYFITQ [RPB5] | 2.52 ± 0.069 | 2.08 ± 0.071 | 1.72 ± 0.065 | 2.08 ± 0.041
FSDKVNALWILVDLVSH [ITC1] | 1.4 ± 0.079 | 1.23 ± 0.051 | 1.35 ± 0.094 | 1.27 ± 0.045
FSFTEPAQKDSSVVSEP [YOR098C/NUP1] | 3.02 ± 0.097 | 3.11 ± 0.1 | 2.81 ± 0.12 | 3.26 ± 0.094
FSIFNYFKMFPASKHDK [RPC34] | 3.28 ± 0.19 | 1.34 ± 0.12 | – | 2.44 ± 0.2
FSKAIEWDMLNVEEEQI [BRR2] | 2.71 ± 0.078 | 3.03 ± 0.11 | 2.54 ± 0.07 | 2.93 ± 0.06
FSKQCLISNAIYGKKTM [ECM29] | 1.15 ± 0.098 | 1.95 ± 0.077 | 1.63 ± 0.14 | 1.82 ± 0.067
FSRFVDQFIRHVLRGVE [YCG1] | 3.37 ± 0.25 | 1.5 ± 0.1 | – | 1.72 ± 0.16
FSTNVKDEIVLSGNSVE [RPL9A] | 2.03 ± 0.13 | 2.18 ± 0.13 | 2.34 ± 0.13 | 2.59 ± 0.054
FTDENTIVLSLNVKCTR [RPC40] | 3.44 ± 0.14 | 3.61 ± 0.091 | 2.96 ± 0.17 | 3.46 ± 0.091
FTFGLTVVQVYDNGQVF [RPP0] | 1.26 ± 0.09 | 1.3 ± 0.1 | 1.36 ± 0.28 | 1.39 ± 0.16
FTIQSFVSSLSNTSTLK [BRR2] | 1.83 ± 0.05 | 1.97 ± 0.041 | 2.01 ± 0.055 | 2.24 ± 0.034
FTIVSLVQLKKFSDLKF [YML103C/NUP188] | 2.37 ± 0.17 | 2.5 ± 0.097 | 2.7 ± 0.1 | 2.06 ± 0.073
FTKPPANETDKRPTPPS [YOR098C/NUP1] | 3.03 ± 0.043 | 3.05 ± 0.048 | 3.14 ± 0.039 | 3.15 ± 0.037
FTRPLFVLLEIEPVTKV [YCS4] | 1.94 ± 0.062 | 2.05 ± 0.07 | 1.95 ± 0.081 | 1.97 ± 0.069
FTTLLESKQDGLSILFL [YML103C/NUP188] | 2.53 ± 0.097 | 2.68 ± 0.12 | 2.56 ± 0.096 | 3 ± 0.14
FVAKLAAQIFGSYNAFE [COR1] | 1.68 ± 0.043 | 1.74 ± 0.048 | 1.63 ± 0.081 | 2.13 ± 0.046
FVDDTNVYRVTVHKTFE [PRP8] | 2.68 ± 0.087 | 2.74 ± 0.11 | 2.21 ± 0.096 | 2.52 ± 0.068
FVIPALPAAVSKSLQES [RPC82] | 1.8 ± 0.1 | 1.69 ± 0.14 | 2.58 ± 0.085 | 2.04 ± 0.12
FVVPTFGQDVSPMINST [SNM1] | 2.94 ± 0.084 | 2.89 ± 0.085 | 2.89 ± 0.056 | 2.84 ± 0.067
FVWLSSEENIGSGLLKL [SWI1] | 3.3 ± 0.098 | 3.19 ± 0.09 | 3.28 ± 0.067 | 3.38 ± 0.068
